T1: PDCD6 N-terminal domain peptide (Homo sapiens, Ca2+ (100 uM CaCl2))
T1 chain: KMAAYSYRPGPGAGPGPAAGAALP


What was measured:
PDCD6 = PDCD6 (Homo sapiens, UniProt O75340); test: SPR
[1] = molecular target: T1, PDCD6 N-terminal domain peptide; test: SPR

Sequence of PDCD6 (O75340 2-191): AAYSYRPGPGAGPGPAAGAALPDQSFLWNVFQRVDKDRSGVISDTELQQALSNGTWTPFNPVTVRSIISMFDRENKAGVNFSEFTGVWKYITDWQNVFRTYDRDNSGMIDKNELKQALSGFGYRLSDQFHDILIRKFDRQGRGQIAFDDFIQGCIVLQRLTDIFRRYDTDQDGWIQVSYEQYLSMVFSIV

Row | Kd (PDCD6) [µM] | Kd [1] [µM] | Binder
1 | 12 | 5 | Sorcin (protein) MAYPGHPGAGGGYYPGGYGGAPGGPAFPGQTQDPLYGYFAAVAGQDGQIDADELQRCLTQSGIAGGYKPFNLETCRLMVSMLDRDMSGTMGFNEFKELWAVLNGWRQHFISFDTDRSGTVDPQELQKALTTMGFRLSPQAVNSIAKRYSTNGKITFDDYIACCVKLRALTDSFRRRDTAQQGVVNFPYDDFIQCVMSV
2 | 3.5 |  | Sorcin (protein, Ca2+ (100 uM CaCl2)) MAYPGHPGAGGGYYPGGYGGAPGGPAFPGQTQDPLYGYFAAVAGQDGQIDADELQRCLTQSGIAGGYKPFNLETCRLMVSMLDRDMSGTMGFNEFKELWAVLNGWRQHFISFDTDRSGTVDPQELQKALTTMGFRLSPQAVNSIAKRYSTNGKITFDDYIACCVKLRALTDSFRRRDTAQQGVVNFPYDDFIQCVMSV
3 | 5 | 6 | SCBD (Sorcin calcium-binding domain) 33-198 (protein) DPLYGYFAAVAGQDGQIDADELQRCLTQSGIAGGYKPFNLETCRLMVSMLDRDMSGTMGFNEFKELWAVLNGWRQHFISFDTDRSGTVDPQELQKALTTMGFRLSPQAVNSIAKRYSTNGKITFDDYIACCVKLRALTDSFRRRDTAQQGVVNFPYDDFIQCVMSV
4 | 3.5 |  | SCBD (Sorcin calcium-binding domain) 33-198 (protein, Ca2+ (100 uM CaCl2)) DPLYGYFAAVAGQDGQIDADELQRCLTQSGIAGGYKPFNLETCRLMVSMLDRDMSGTMGFNEFKELWAVLNGWRQHFISFDTDRSGTVDPQELQKALTTMGFRLSPQAVNSIAKRYSTNGKITFDDYIACCVKLRALTDSFRRRDTAQQGVVNFPYDDFIQCVMSV

— paper PMC4649501 (2015)
